Measurements: patent US20240182536A1 (MURAL ONCOLOGY, published 2024)

T1: IL-18 receptor (IL-18Rα and IL-18Rβ) (UniProt Q13478 19-541; O95256 20-599, limits assumed)
T1 sequence (looked up) 1: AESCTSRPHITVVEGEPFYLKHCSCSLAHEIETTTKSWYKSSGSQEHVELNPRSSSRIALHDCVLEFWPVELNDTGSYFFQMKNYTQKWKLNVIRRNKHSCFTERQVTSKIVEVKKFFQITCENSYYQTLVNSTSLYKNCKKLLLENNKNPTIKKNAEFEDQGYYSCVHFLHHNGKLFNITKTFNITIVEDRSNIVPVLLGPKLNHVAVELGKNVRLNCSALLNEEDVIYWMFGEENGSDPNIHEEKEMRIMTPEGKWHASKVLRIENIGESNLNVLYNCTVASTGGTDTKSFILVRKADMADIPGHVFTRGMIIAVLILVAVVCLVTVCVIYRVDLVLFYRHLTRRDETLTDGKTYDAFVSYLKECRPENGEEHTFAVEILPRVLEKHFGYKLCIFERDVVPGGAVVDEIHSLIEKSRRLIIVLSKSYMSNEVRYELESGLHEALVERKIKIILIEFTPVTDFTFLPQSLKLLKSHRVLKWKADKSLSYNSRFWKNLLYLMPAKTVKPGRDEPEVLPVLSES
T1 sequence (looked up) 2: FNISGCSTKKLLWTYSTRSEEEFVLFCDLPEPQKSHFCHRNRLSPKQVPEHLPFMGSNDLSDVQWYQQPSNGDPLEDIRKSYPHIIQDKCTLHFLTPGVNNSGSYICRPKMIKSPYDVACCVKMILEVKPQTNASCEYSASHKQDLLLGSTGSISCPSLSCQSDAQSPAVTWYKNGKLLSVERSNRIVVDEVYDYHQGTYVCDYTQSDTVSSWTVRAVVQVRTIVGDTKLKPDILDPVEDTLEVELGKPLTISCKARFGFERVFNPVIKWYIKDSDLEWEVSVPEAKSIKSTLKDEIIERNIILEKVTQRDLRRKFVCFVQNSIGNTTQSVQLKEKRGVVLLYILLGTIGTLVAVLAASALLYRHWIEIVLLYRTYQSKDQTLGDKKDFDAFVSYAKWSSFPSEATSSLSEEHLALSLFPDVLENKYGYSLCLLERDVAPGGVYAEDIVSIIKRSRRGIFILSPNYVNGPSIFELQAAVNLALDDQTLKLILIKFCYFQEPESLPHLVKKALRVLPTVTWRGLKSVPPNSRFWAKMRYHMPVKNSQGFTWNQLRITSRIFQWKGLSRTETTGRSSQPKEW

T2: human IL-18 binding protein (human, UniProt O95998 31-194)
T2 sequence (looked up): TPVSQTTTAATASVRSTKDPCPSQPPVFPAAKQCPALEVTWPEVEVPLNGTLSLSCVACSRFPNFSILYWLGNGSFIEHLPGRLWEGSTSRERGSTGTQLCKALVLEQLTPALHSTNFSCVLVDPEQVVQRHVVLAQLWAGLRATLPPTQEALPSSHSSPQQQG

T3: IL-18 receptors on HEK-Blue IL-18 reporter cells (UniProt Q13478 19-541; O95256 20-599, limits assumed)
T3 sequence (looked up) 1: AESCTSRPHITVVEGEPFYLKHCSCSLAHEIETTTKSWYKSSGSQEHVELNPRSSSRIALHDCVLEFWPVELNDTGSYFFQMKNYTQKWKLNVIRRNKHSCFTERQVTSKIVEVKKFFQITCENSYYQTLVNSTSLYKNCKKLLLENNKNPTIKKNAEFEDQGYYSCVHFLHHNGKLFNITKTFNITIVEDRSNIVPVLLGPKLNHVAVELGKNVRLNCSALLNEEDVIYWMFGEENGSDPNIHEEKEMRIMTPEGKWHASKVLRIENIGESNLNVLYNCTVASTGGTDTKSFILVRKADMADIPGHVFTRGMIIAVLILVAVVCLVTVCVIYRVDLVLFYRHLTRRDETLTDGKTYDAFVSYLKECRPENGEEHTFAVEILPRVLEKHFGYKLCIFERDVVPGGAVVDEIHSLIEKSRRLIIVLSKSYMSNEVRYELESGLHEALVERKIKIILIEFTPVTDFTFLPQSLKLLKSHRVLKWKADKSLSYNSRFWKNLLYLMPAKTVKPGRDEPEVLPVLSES
T3 sequence (looked up) 2: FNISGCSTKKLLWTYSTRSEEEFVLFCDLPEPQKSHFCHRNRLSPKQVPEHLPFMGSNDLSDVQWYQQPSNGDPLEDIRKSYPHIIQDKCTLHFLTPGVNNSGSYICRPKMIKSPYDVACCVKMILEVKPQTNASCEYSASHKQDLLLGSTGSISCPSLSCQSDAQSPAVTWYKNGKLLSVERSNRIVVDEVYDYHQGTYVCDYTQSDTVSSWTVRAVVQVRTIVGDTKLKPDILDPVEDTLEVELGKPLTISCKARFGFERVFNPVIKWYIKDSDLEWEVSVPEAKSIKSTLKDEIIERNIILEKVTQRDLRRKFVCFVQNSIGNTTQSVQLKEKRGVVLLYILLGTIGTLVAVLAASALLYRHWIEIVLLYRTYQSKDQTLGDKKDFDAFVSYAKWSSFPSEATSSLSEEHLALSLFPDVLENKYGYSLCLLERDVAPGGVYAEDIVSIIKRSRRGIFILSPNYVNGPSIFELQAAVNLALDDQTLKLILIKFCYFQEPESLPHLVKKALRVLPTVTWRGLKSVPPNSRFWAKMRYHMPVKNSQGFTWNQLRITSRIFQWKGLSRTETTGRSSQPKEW

B1: hIL18 (G3V, E6K, K53A, M60K)- KiH (Fc fusion)
chain: YFVKLKSKLSVIRNLNDQVLFIDQGNRPLFEDMTDSDMRDNAPRTIFIISMYADSQPRGKAVTISVKSEKISTLSSENKIISFKEMNPPDNIKDTKSDIIFFQRSVPGHDNKMQFESSSYEGYFLASEKERDLFKLILKKEDELGDRSIMFTVQNED
B2: hIL18 (G3T, E6K, K53A, M60K) - KiH (Fc fusion)
chain: YFTKLKSKLSVIRNLNDQVLFIDQGNRPLFEDMTDSDMRDNAPRTIFIISMYADSQPRGKAVTISVKSEKISTLSSENKIISFKEMNPPDNIKDTKSDIIFFQRSVPGHDNKMQFESSSYEGYFLASEKERDLFKLILKKEDELGDRSIMFTVQNED
B3: hIL18 (G3V, E6K, K53S, M60K) - KiH (Fc fusion)
chain: YFVKLKSKLSVIRNLNDQVLFIDQGNRPLFEDMTDSDMRDNAPRTIFIISMYSDSQPRGKAVTISVKSEKISTLSSENKIISFKEMNPPDNIKDTKSDIIFFQRSVPGHDNKMQFESSSYEGYFLASEKERDLFKLILKKEDELGDRSIMFTVQNED
B4: yeast display IL-18 variant K53Y, S55G (ligand)
chain: YFGKLESKLSVIRNLNDQVLFIDQGNRPLFEDMTDSDMRDNAPRTIFIISMYYDGQPRGMAVTISVKSEKISTLSSENKIISFKEMNPPDNIKDTKSDIIFFQRSVPGHDNKMQFESSSYEGYFLASEKERDLFKLILKKEDELGDRSIMFTVQNED
B5: hIL18 (G3T, K53A, M60K) - KiH (Fc fusion)
chain: YFTKLESKLSVIRNLNDQVLFIDQGNRPLFEDMTDSDMRDNAPRTIFIISMYADSQPRGKAVTISVKSEKISTLSSENKIISFKEMNPPDNIKDTKSDIIFFQRSVPGHDNKMQFESSSYEGYFLASEKERDLFKLILKKEDELGDRSIMFTVQNED
B6: yeast display IL-18 variant T34I, S36V, D40I, N41M, K53G, S55Y (ligand)
chain: YFGKLESKLSVIRNLNDQVLFIDQGNRPLFEDMIDVDMRIMAPRTIFIISMYGDYQPRGMAVTISVKSEKISTLSSENKIISFKEMNPPDNIKDTKSDIIFFQRSVPGHDNKMQFESSSYEGYFLASEKERDLFKLILKKEDELGDRSIMFTVQNED
B7: hIL18 (G3V, K53A, M60K) - KiH (Fc fusion)
chain: YFVKLESKLSVIRNLNDQVLFIDQGNRPLFEDMTDSDMRDNAPRTIFIISMYADSQPRGKAVTISVKSEKISTLSSENKIISFKEMNPPDNIKDTKSDIIFFQRSVPGHDNKMQFESSSYEGYFLASEKERDLFKLILKKEDELGDRSIMFTVQNED
B8: yeast display IL-18 variant K53Y, S55Y (ligand)
chain: YFGKLESKLSVIRNLNDQVLFIDQGNRPLFEDMTDSDMRDNAPRTIFIISMYYDYQPRGMAVTISVKSEKISTLSSENKIISFKEMNPPDNIKDTKSDIIFFQRSVPGHDNKMQFESSSYEGYFLASEKERDLFKLILKKEDELGDRSIMFTVQNED
B9: hIL18 (G3T, E6K, K53S, M60K) - KiH (Fc fusion)
chain: YFTKLKSKLSVIRNLNDQVLFIDQGNRPLFEDMTDSDMRDNAPRTIFIISMYSDSQPRGKAVTISVKSEKISTLSSENKIISFKEMNPPDNIKDTKSDIIFFQRSVPGHDNKMQFESSSYEGYFLASEKERDLFKLILKKEDELGDRSIMFTVQNED
B10: hIL18 (G3T, K53S, M60K) - KiH (Fc fusion)
chain: YFTKLESKLSVIRNLNDQVLFIDQGNRPLFEDMTDSDMRDNAPRTIFIISMYSDSQPRGKAVTISVKSEKISTLSSENKIISFKEMNPPDNIKDTKSDIIFFQRSVPGHDNKMQFESSSYEGYFLASEKERDLFKLILKKEDELGDRSIMFTVQNED

Tests used:
Assay in all cases: cell-based or functional assay
[1] = biological target: T1, IL-18 receptor (IL-18Rα and IL-18Rβ)
[2] = biological target: T2, human IL-18 binding protein
[3] = biological target: T3, IL-18 receptors on HEK-Blue IL-18 …

Binder | EC50 (pM), PBMC IFN gamma assay, average [1] | EC50 (pM), PBMC IFN gamma assay, run 1 [1] | EC50 (pM), PBMC IFN gamma assay, run 2 [1] | EC50 (pM), PBMC IFN gamma assay, run 3 [1] | PBMC IFN gamma EC50 relative to WT-IL18, average [1] | PBMC IFN gamma EC50 relative to WT-IL18, run 1 [1] | PBMC IFN gamma EC50 relative to WT-IL18, run 2 [1] | PBMC IFN gamma EC50 relative to WT-IL18, run 3 [1] | HEK-Blue activity, +100 nM BP, DF-10000 [2] | HEK-Blue activity, +100 nM BP, DF-100,000 [2] | HEK-Blue activity, +100 nM BP, DF-1,000,000 [2] | Ratio (-BP/+BP), DF-10000 [2] | Ratio (-BP/+BP), DF-100,000 [2] | Ratio (-BP/+BP), DF-1,000,000 [2] | HEK-Blue activity, No BP, DF-10000 [3] | HEK-Blue activity, No BP, DF-100,000 [3] | HEK-Blue activity, No BP, DF-1,000,000 [3]
B1 | 5.46 pM | 8.83 pM | 3.21 pM | 4.33 pM | 0.03 | 0.04 | 0.03 | 0.03 |  |  |  |  |  |  |  |  | 
B2 | 16 pM | 13.3 pM | 14 pM | 20.7 pM | 0.11 | 0.06 | 0.13 | 0.13 |  |  |  |  |  |  |  |  | 
B3 | 16.8 pM | 17.8 pM | 21.6 pM | 10.9 pM | 0.12 | 0.07 | 0.21 | 0.07 |  |  |  |  |  |  |  |  | 
B4 |  |  |  |  |  |  |  |  | 0.21 | 0.16 | 0.13 | 1.71 | 0.88 | 0.94 | 0.36 | 0.14 | 0.12
B5 | 195 pM | 209 pM | 214 pM | 162 pM | 1.3 | 0.87 | 2.04 | 1 |  |  |  |  |  |  |  |  | 
B6 |  |  |  |  |  |  |  |  | 0.21 | 0.1 | 0.09 | 1.46 | 1.11 | 1.52 | 0.3 | 0.11 | 0.14
B7 | 60.6 pM | 47.3 pM | 75 pM | 59.4 pM | 0.43 | 0.2 | 0.71 | 0.37 |  |  |  |  |  |  |  |  | 
B8 |  |  |  |  |  |  |  |  | 0.24 | 0.14 | 0.21 | 1.57 | 1.21 | 0.57 | 0.38 | 0.17 | 0.12
B9 | 84.4 pM | 90.3 pM | 121 pM | 41.6 pM | 0.6 | 0.37 | 1.15 | 0.26 |  |  |  |  |  |  |  |  | 
B10 | 906 pM | 810 pM | 1120 pM | 784 pM | 6.3 | 3.36 | 10.7 | 4.85 |  |  |  |  |  |  |  |  | 
